Data taken from patent publication US20230235052A1 (GRACELL BIOTECHNOLOGIES SHANGHAI, published 2023).
Like-named read-outs stand apart in the source and are kept apart here.

T1: human CD19 antigen (human, UniProt P15391 20-291, limits assumed)
T1 sequence (looked up): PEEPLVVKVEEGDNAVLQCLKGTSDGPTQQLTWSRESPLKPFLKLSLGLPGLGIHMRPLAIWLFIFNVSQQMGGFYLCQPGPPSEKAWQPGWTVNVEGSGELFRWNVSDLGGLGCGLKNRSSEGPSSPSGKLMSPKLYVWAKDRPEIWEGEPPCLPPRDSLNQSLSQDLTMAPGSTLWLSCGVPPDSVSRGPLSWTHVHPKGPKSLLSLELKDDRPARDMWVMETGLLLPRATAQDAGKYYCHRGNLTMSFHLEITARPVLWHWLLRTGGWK


Legend:
human CD19 antigen [1] = target: T1, human CD19 antigen; assay: SPR (Biacore), antibody captured via Fc
Experimental: Part of the antibodies in Example 1 were tested for affinity, and the composition of the heavy chain variable regions and the light chain variable regions of the antibodies to be tested are shown in Table 1.
(§1) HEK293 cells were used to express the antibodies to be tested and Protein A was used for purification. The surface plasmon resonance technique (SPR) was used for determination, and the Fc capture method was used for antibody fixation.

human CD19 antigen [2] = target: T1, human CD19 antigen; assay: SPR (Biacore), antibody captured via Fc; remark: listed apart in the source
Experimental: Part of the antibodies in Example 1 were tested for affinity, and the composition of the heavy chain variable regions and the light chain variable regions of the antibodies to be tested are shown in Table 2.
as §1

| Kd (human CD19 antigen [1]) [nM] | koff (human CD19 antigen [1]) [s⁻¹] | Kd (human CD19 antigen [2]) [nM] | koff (human CD19 antigen [2]) [s⁻¹] | kon (human CD19 antigen [2]) [M⁻¹ s⁻¹] | Binder |
| --- | --- | --- | --- | --- | --- |
| 21000 | 0.00493 |  |  |  | humanized CD19 antibody VH6 + VL4 (antibody, V domains shown, also called Antibody No. 16) VH: QVQLQESGPGLVKPSQTLSVTCTVSGVSLPDYGVSWIRQPPGKGLEWLGVIWGSETTYYNAALKSRLTISKDTSKNQVSLKLSSLTAADTAVYYCAKHYYYGGSYAMDYWGQGTTVTVSS VL: DIQMTQSPSSLSASVGDRVTITCRASQDISKYLNWYQQKPGKAPKLLIYHTSRLHSGVPSRFSGSGSGTDYTLTISSLQPEDIATYYCQQANTLPYTFGGGTKLEIK |
| 89.2 | 0.000605 |  |  |  | humanized CD19 antibody VH4 + VL2 (antibody, V domains shown, also called Antibody No. 11) VH: QVQLQESGPGLVKPSQTLSLTCTVSGVSLPDYGVSWIRQPPGKGLEWLGVIWGSETTYYNSALKSRLTISKDTSKNQVSLKLSSVTAADTAVYYCAKHYYYGGSYAMDYWGQGTTVTVSS VL: DIQMTQSPSSLSASVGDRVTITCRASQDISKYLNWYQQKPGKAPKLLIYHTSRLHSGVPSRFSGSGSGTDYTFTISSLQPEDIATYYCQQGNTLPYTFGGGTKLEIK |
| 66.8 | 0.000526 |  |  |  | humanized CD19 antibody VH2 + VL2 (antibody, V domains shown, also called Antibody No. 5) VH: QVQLQESGPGLVKPSQTLSLTCTVSGVSLPDYGVSWIRQPPGKGLEWIGVIWGSETTYYNSALKSRVTISKDTSKNQVSLKLSSVTAADTAVYYCAKHYYYGGSYAMDYWGQGTTVTVSS VL: DIQMTQSPSSLSASVGDRVTITCRASQDISKYLNWYQQKPGKAPKLLIYHTSRLHSGVPSRFSGSGSGTDYTFTISSLQPEDIATYYCQQGNTLPYTFGGGTKLEIK |
| 40.7 | 0.0794 |  |  |  | humanized CD19 antibody VH1 + VL3 (antibody, V domains shown, also called Antibody No. 3) VH: QVQLQESGPGLVKPSQTLSLTCTVSGVSLPDYGVSWIRQPPGKGLEWIGVIWGSETTYYNSALKSRVTISVDTSKNQFSLKLSSVTAADTAVYYCARHYYYGGSYAMDYWGQGTTVTVSS VL: DIQMTQSPSSLSASVGDRVTITCRASQDISKYLNWYQQKPGKAPKLLIYHTSRLHSGVPSRFSGSGSGTDYTLTISSLQPEDIATYYCQQGNTLPYTFGGGTKLEIK |
|  |  | 6.93 | 0.00124 | 179000 | humanized CD19 antibody VH2 + VL6 (antibody, V domains shown) VH: QVQLQESGPGLVKPSQTLSLTCTVSGVSLPDYGVSWIRQPPGKGLEWIGVIWGSETTYYNSALKSRVTISKDTSKNQVSLKLSSVTAADTAVYYCAKHYYYGGSYAMDYWGQGTTVTVSS VL: DIQMTQSPSSLSASVGDRVTITCRASQDISKYLNWYQQKPGGAVKLLIYHTSRLHSGVPSRFSGSGSGTDYTFTISSLQPEDIATYFCQQGNTLPYTFGGGTKLEIK |
| 99.7 | 0.000637 |  |  |  | humanized CD19 antibody VH5 + VL1 (antibody, V domains shown, also called Antibody No. 13) VH: QVQLQESGPGLVKPSQTLSVTCTVSGVSLPDYGVSWIRQPPGKGLEWLGVIWGSETTYYNSALKSRLTISKDTSKNQVSLKLSSLTAADTAVYYCAKHYYYGGSYAMDYWGQGTTVTVSS VL: DIQMTQSPSSLSASVGDRVTITCRASQDISKYLNWYQQKPGKAPKLLIYHTSRLHSGVPSRFSGSGSGTDFTFTISSLQPEDIATYYCQQGNTLPYTFGGGTKLEIK |
| 15.8 | 0.00159 |  |  |  | humanized CD19 antibody VH3 + VL3 (antibody, V domains shown, also called Antibody No. 9) VH: QVQLQESGPGLVKPSQTLSLTCTVSGVSLPDYGVSWIRQPPGKGLEWIGVIWGSETTYYNSALKSRLTISKDTSKNQVSLKLSSVTAADTAVYYCAKHYYYGGSYAMDYWGQGTTVTVSS VL: DIQMTQSPSSLSASVGDRVTITCRASQDISKYLNWYQQKPGKAPKLLIYHTSRLHSGVPSRFSGSGSGTDYTLTISSLQPEDIATYYCQQGNTLPYTFGGGTKLEIK |
| 57.6 | 0.00808 |  |  |  | humanized CD19 antibody VH1 + VL1 (antibody, V domains shown, also called Antibody No. 1) VH: QVQLQESGPGLVKPSQTLSLTCTVSGVSLPDYGVSWIRQPPGKGLEWIGVIWGSETTYYNSALKSRVTISVDTSKNQFSLKLSSVTAADTAVYYCARHYYYGGSYAMDYWGQGTTVTVSS VL: DIQMTQSPSSLSASVGDRVTITCRASQDISKYLNWYQQKPGKAPKLLIYHTSRLHSGVPSRFSGSGSGTDFTFTISSLQPEDIATYYCQQGNTLPYTFGGGTKLEIK |
| 111 | 0.000688 |  |  |  | humanized CD19 antibody VH3 + VL1 (antibody, V domains shown, also called Antibody No. 7) VH: QVQLQESGPGLVKPSQTLSLTCTVSGVSLPDYGVSWIRQPPGKGLEWIGVIWGSETTYYNSALKSRLTISKDTSKNQVSLKLSSVTAADTAVYYCAKHYYYGGSYAMDYWGQGTTVTVSS VL: DIQMTQSPSSLSASVGDRVTITCRASQDISKYLNWYQQKPGKAPKLLIYHTSRLHSGVPSRFSGSGSGTDFTFTISSLQPEDIATYYCQQGNTLPYTFGGGTKLEIK |

Further lines, the binder ahead of its results:

| Binder | Kd (human CD19 antigen [1]) [nM] | koff (human CD19 antigen [1]) [s⁻¹] | Kd (human CD19 antigen [2]) [nM] | koff (human CD19 antigen [2]) [s⁻¹] | kon (human CD19 antigen [2]) [M⁻¹ s⁻¹] |
| --- | --- | --- | --- | --- | --- |
| humanized CD19 antibody VH3 + VL2 (antibody, V domains shown, also called Antibody No. 8) VH: QVQLQESGPGLVKPSQTLSLTCTVSGVSLPDYGVSWIRQPPGKGLEWIGVIWGSETTYYNSALKSRLTISKDTSKNQVSLKLSSVTAADTAVYYCAKHYYYGGSYAMDYWGQGTTVTVSS VL: DIQMTQSPSSLSASVGDRVTITCRASQDISKYLNWYQQKPGKAPKLLIYHTSRLHSGVPSRFSGSGSGTDYTFTISSLQPEDIATYYCQQGNTLPYTFGGGTKLEIK | 109 | 0.000638 |  |  |  |
| humanized CD19 antibody VH4 + VL1 (antibody, V domains shown, also called Antibody No. 10) VH: QVQLQESGPGLVKPSQTLSLTCTVSGVSLPDYGVSWIRQPPGKGLEWLGVIWGSETTYYNSALKSRLTISKDTSKNQVSLKLSSVTAADTAVYYCAKHYYYGGSYAMDYWGQGTTVTVSS VL: DIQMTQSPSSLSASVGDRVTITCRASQDISKYLNWYQQKPGKAPKLLIYHTSRLHSGVPSRFSGSGSGTDFTFTISSLQPEDIATYYCQQGNTLPYTFGGGTKLEIK | 81 | 0.000584 |  |  |  |
| humanized CD19 antibody VH2 + VL1 (antibody, V domains shown, also called Antibody No. 4) VH: QVQLQESGPGLVKPSQTLSLTCTVSGVSLPDYGVSWIRQPPGKGLEWIGVIWGSETTYYNSALKSRVTISKDTSKNQVSLKLSSVTAADTAVYYCAKHYYYGGSYAMDYWGQGTTVTVSS VL: DIQMTQSPSSLSASVGDRVTITCRASQDISKYLNWYQQKPGKAPKLLIYHTSRLHSGVPSRFSGSGSGTDFTFTISSLQPEDIATYYCQQGNTLPYTFGGGTKLEIK | 69.8 | 0.000568 |  |  |  |
| humanized CD19 antibody VH2 + VL7 (antibody, V domains shown) VH: QVQLQESGPGLVKPSQTLSLTCTVSGVSLPDYGVSWIRQPPGKGLEWIGVIWGSETTYYNSALKSRVTISKDTSKNQVSLKLSSVTAADTAVYYCAKHYYYGGSYAMDYWGQGTTVTVSS VL: DIQMTQSPSSLSASVGDRVTISCRASQDISKYLNWYQQKPDGTVKLLIYHTSRLHSGVPSRFSGSGSGTDFTFTISSLQPEDIATYFCQQGNTLPYTFGGGTKLEIK |  |  | 6.39 | 0.00116 | 181000 |
| humanized CD19 antibody VH2 + VL3 (antibody, V domains shown, also called Antibody No. 6) VH: QVQLQESGPGLVKPSQTLSLTCTVSGVSLPDYGVSWIRQPPGKGLEWIGVIWGSETTYYNSALKSRVTISKDTSKNQVSLKLSSVTAADTAVYYCAKHYYYGGSYAMDYWGQGTTVTVSS VL: DIQMTQSPSSLSASVGDRVTITCRASQDISKYLNWYQQKPGKAPKLLIYHTSRLHSGVPSRFSGSGSGTDYTLTISSLQPEDIATYYCQQGNTLPYTFGGGTKLEIK | 44.7 | 0.000395 |  |  |  |
| humanized CD19 antibody VH4 + VL3 (antibody, V domains shown, also called Antibody No. 12) VH: QVQLQESGPGLVKPSQTLSLTCTVSGVSLPDYGVSWIRQPPGKGLEWLGVIWGSETTYYNSALKSRLTISKDTSKNQVSLKLSSVTAADTAVYYCAKHYYYGGSYAMDYWGQGTTVTVSS VL: DIQMTQSPSSLSASVGDRVTITCRASQDISKYLNWYQQKPGKAPKLLIYHTSRLHSGVPSRFSGSGSGTDYTLTISSLQPEDIATYYCQQGNTLPYTFGGGTKLEIK | 56.1 | 0.000437 |  |  |  |
| humanized CD19 antibody VH1 + VL2 (antibody, V domains shown, also called Antibody No. 2) VH: QVQLQESGPGLVKPSQTLSLTCTVSGVSLPDYGVSWIRQPPGKGLEWIGVIWGSETTYYNSALKSRVTISVDTSKNQFSLKLSSVTAADTAVYYCARHYYYGGSYAMDYWGQGTTVTVSS VL: DIQMTQSPSSLSASVGDRVTITCRASQDISKYLNWYQQKPGKAPKLLIYHTSRLHSGVPSRFSGSGSGTDYTFTISSLQPEDIATYYCQQGNTLPYTFGGGTKLEIK | 7.95 | 0.00738 |  |  |  |
| humanized CD19 antibody VH5 + VL3 (antibody, V domains shown, also called Antibody No. 15) VH: QVQLQESGPGLVKPSQTLSVTCTVSGVSLPDYGVSWIRQPPGKGLEWLGVIWGSETTYYNSALKSRLTISKDTSKNQVSLKLSSLTAADTAVYYCAKHYYYGGSYAMDYWGQGTTVTVSS VL: DIQMTQSPSSLSASVGDRVTITCRASQDISKYLNWYQQKPGKAPKLLIYHTSRLHSGVPSRFSGSGSGTDYTLTISSLQPEDIATYYCQQGNTLPYTFGGGTKLEIK | 14.2 | 0.00143 |  |  |  |
| humanized CD19 antibody VH5 + VL2 (antibody, V domains shown, also called Antibody No. 14) VH: QVQLQESGPGLVKPSQTLSVTCTVSGVSLPDYGVSWIRQPPGKGLEWLGVIWGSETTYYNSALKSRLTISKDTSKNQVSLKLSSLTAADTAVYYCAKHYYYGGSYAMDYWGQGTTVTVSS VL: DIQMTQSPSSLSASVGDRVTITCRASQDISKYLNWYQQKPGKAPKLLIYHTSRLHSGVPSRFSGSGSGTDYTFTISSLQPEDIATYYCQQGNTLPYTFGGGTKLEIK | 14.8 | 0.0018 |  |  |  |
| humanized CD19 antibody VH4 + VL6 (antibody, V domains shown) VH: QVQLQESGPGLVKPSQTLSLTCTVSGVSLPDYGVSWIRQPPGKGLEWLGVIWGSETTYYNSALKSRLTISKDTSKNQVSLKLSSVTAADTAVYYCAKHYYYGGSYAMDYWGQGTTVTVSS VL: DIQMTQSPSSLSASVGDRVTITCRASQDISKYLNWYQQKPGGAVKLLIYHTSRLHSGVPSRFSGSGSGTDYTFTISSLQPEDIATYFCQQGNTLPYTFGGGTKLEIK |  |  | 9.31 | 0.00121 | 129000 |
